The target in one data set is T1, MBP-Tin R321N HD (Drosophila melanogaster, UniProt P22711 301-360, R321N).
T1 sequence: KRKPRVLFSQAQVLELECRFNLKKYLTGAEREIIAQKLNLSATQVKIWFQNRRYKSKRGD
Nature of the data set: EMSA; 1.5 ug protein, equal to WT; EMSA: 40 mM KCl, 15 mM HEPES pH 7.9, 1 mM EDTA, 0.5 mM DTT, 5% glycerol, 4 ug poly-dIdC; temperature not stated. The note with it: protein: recombinant; tags: N-terminal MBP; label: radioactive (probe); only one strand given.

The target in a further data set is T2, MBP-Tin HD (WT) (Drosophila melanogaster, UniProt P22711 301-360).
T2 sequence: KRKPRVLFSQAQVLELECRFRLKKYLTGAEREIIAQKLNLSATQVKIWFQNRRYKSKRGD
Kind of data set: EMSA; 1.5 ug protein; competed by 300-fold excess unlabelled WT; EMSA: 40 mM KCl, 15 mM HEPES pH 7.9, 1 mM EDTA, 0.5 mM DTT, 5% glycerol, 4 ug poly-dIdC; temperature not stated. Conditions: protein: recombinant; tags: N-terminal MBP; label: radioactive (probe); only one strand given.

B1: Mp Tin1 site (dsDNA)
DNA 1: GGACTCTTTGGCTGAAGTGTCCGGTGAAA
DNA 2: TTTCACCGGACACTTCAGCCAAAGAGTCC
Turning to B1, the binding signal in the data set with MBP-Tin R321N HD was 7 % of WT band intensity. In addition, the binding result with MBP-Tin HD (WT) is given as “binds”.

The values are drawn from paper PMC10548113, “Modeling a variant of unknown significance in the Drosophila ortholog of the human cardiogenic gene NKX2.5”.
